Measurements published in US20220275088A1 (published 2022).

Key:
Cyno PD1 = assay: flow cytometry
[1] = molecular target: T1, soluble PD-1 (biotinylated PD-1; expi293 expressed soluble PD1-avi) (UniProt Q15116 25-170, biotinylated (Avidity's biotinylation kit, avi tag) where loaded on SA sensors or used to stain yeast); assay: ELISA; variable antigen coating
[2] = molecular target: T1, soluble PD-1 (biotinylated PD-1; …); assay: ELISA; constant antigen coating
[3] = molecular target: human PD-1 on cells (transfected Expi293 cells, PHA-cultured T cells, cells of the Promega PD1-PDL1 bioassay, … (UniProt Q15116 25-288)); assay: flow cytometry
[4] = molecular target: T1, soluble PD-1 (biotinylated PD-1; …); assay: yeast display flow cytometry

T1 sequence (Q15116 25-170): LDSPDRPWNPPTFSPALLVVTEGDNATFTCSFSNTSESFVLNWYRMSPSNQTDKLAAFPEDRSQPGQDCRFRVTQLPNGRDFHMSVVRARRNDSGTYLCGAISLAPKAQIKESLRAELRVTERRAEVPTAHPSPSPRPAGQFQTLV
human PD-1 on cells (transfected Expi293 cells, PHA-cultured T cells, cells of the Promega PD1-PDL1 bioassay, …, sequence (Q15116 25-288): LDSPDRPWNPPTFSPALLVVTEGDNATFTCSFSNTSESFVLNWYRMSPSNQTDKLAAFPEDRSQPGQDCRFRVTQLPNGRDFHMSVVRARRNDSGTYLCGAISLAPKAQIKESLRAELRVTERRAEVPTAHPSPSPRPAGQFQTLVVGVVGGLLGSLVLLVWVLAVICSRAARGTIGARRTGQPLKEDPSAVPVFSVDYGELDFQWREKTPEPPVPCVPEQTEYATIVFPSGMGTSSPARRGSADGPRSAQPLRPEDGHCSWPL

B1: P4#B3 (Fc fusion)
VH: QVQLVQSGGGLVQPGRSLRLSCAASGFTFDDYAMHWVRQAPGKGLEWVSGISWNSGSIGYADSVKGRFTVSRDNAKNSLYLQMNSLRAEDTAVYYCASDYGDKYYYYGMDVWGKGTTVTVSS
VL: QPGLTQPPSASGTPGQRVTISCSGSSSNIGSNTVNWYQQFPGKAPKLLIFNDNQRPSGVPDRFSASKSGTSASLAISGLQSEDEADYYCAAWDGGLNGRGVFGGGTKLTVL
B1 was tested. Which EC50 (Cyno PD1) did it give?
The EC50 was 0.072 µg/mL.

B2: P4-B3 IgG1 wild type monomer (antibody, V domains shown)
VH: QVQLVQSGGGLVQPGRSLRLSCAASGFTFDDYAMHWVRQAPGKGLEWVSGISWNSGSIGYADSVKGRFTVSRDNAKNSLYLQMNSLRAEDTAVYYCASDYGDKYYYYGMDVWGKGTTVTVSS
VL: QPGLTQPPSASGTPGQRVTISCSGSSSNIGSNTVNWYQQFPGKAPKLLIFNDNQRPSGVPDRFSASKSGTSASLAISGLQSEDEADYYCAAWDGGLNGRGVFGGGTKLTVLG
For B2, which EC50 [1] is on record?
The EC50 was 0.514 µg/mL.

And the EC50 [2]?
The EC50 was 0.0407 µg/mL.

B3: P4-B3 minibody (scFv-Fc) (Fc fusion)
VH: QVQLVQSGGGLVQPGRSLRLSCAASGFTFDDYAMHWVRQAPGKGLEWVSGISWNSGSIGYADSVKGRFTVSRDNAKNSLYLQMNSLRAEDTAVYYCASDYGDKYYYYGMDVWGKGTTVTVSS
VL: QPGLTQPPSASGTPGQRVTISCSGSSSNIGSNTVNWYQQFPGKAPKLLIFNDNQRPSGVPDRFSASKSGTSASLAISGLQSEDEADYYCAAWDGGLNGRGVFGGGTKLTVL
Which EC50 [3] does the source give for B3 here?
The EC50 was 0.097 µg/mL.

B4: P4-B3 scFv (scFv, V domains shown)
VH: QVQLVQSGGGLVQPGRSLRLSCAASGFTFDDYAMHWVRQAPGKGLEWVSGISWNSGSIGYADSVKGRFTVSRDNAKNSLYLQMNSLRAEDTAVYYCASDYGDKYYYYGMDVWGKGTTVTVSS
VL: QPGLTQPPSASGTPGQRVTISCSGSSSNIGSNTVNWYQQFPGKAPKLLIFNDNQRPSGVPDRFSASKSGTSASLAISGLQSEDEADYYCAAWDGGLNGRGVFGGGTKLTVL
For B4, which EC50 [4] is on record?
The EC50 was 101 nM.
